Laboratory results: the nanobody polyreactivity screen of Harvey et al. (2022)

Assay: yeast display, Sf9 membrane polyspecificity reagent, FACS + sequencing; frameworks hold sequencing errors
How it was run: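 After 36–48 hours of galactose induction, yeast (Saccharomyces cerevisiae BJ5465) displaying a synthetic nanobody library were stained at 4 °C for 1 hour with 10% biotinylated, detergent-solubilized Sf9 membrane reagent. Streptavidin microbeads enriched the stained cells before FACS sorting into low and high (top ~1%) gates on anti-HA and streptavidin fluorescence. Each clone's polyreactivity label reflects its gate of origin.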

Sequence | polyreactivity (PSR sort gate)
QVQLVESGGGLVQAGGSLRLSCAASGITLTKNAMGWYRQAPGKERELVAGITRGSRTNYADSVKGRFTISRDNAKNTVYLQMNSLKPEDTAVYYCAASYWPYRGPVGGSKMYYWGQGTQVTVSS | high polyreactivity
QVQLVESGGGLVQAGGSLRLSCAASGITLTRYAMGWYRQAPGKDRELVAAISTGGGSTYYADSVKGRFTISRDNAKNTVYLQMNSLKPEDTAVYYCAARIRFARGYPITRTYDYWGQGTQVTVSS | high polyreactivity
QVQLVESGGGLVQAGGSLRLSCAASGITLVSYARGWYRQAPGKERELVAAISWSGGRTFYADSVKGRFTISRDNAKNTVYLQMNRLKPEDTAVYYCNTAQYPYFYSHVSYPHDYWGQGTQVTVSS | high polyreactivity
QVQLVESGGGLVQAGGSLRLSCAASGITLYEYAMGWYRQAPGKERELVAAMSTSGGRTRYADSVKGRFTISRDNAKNTVYLQMNSLKPEDTAVYYCNRLYGPGFKSVYGYDYWGQGTQVTVSS | high polyreactivity
QVQLVESGGGLVQAGGSLRLSCAASGITLYRYAMGWYRLAPGKERELVADISSGGGTTYYADSVKGRFTISRDNAKNTVYLQMNSLKPEDTAVYYCAADYGFRYPLYEFWGQGTQVTVSS | low polyreactivity
QVQLVESGGGLVQAGGSLRLSCAASGITPDYAMGWYRQAPGTERELVAAITWSGGRTYYADSVKGRFTISRDNAKNTVYLQMNSLKPEDTAVYYCAAEHYLGYDYWGQGTQVTVSS | low polyreactivity
QVQLVESGGGLVQAGGSLRLSCAASGITSFFYDMGWYRQAPGKERELVAGISSGGSTNYADSVKGRFTISRDNAKNTVYLQMNSLKPEDTAVSYCAKDYPHTVSLGEYDYWGQGTQVTVSS | high polyreactivity
QVQLVESGGGLVQAGGSLRLSCAASGITSHWYVMGWYRQAPGKERELVAAINSSGGRTSYADSVKGRFTISRDNAKNTVYLQMNSLKPEDTAVYYCAAGYTHSYFLGATGKVDYWGQGTQVTVSS | low polyreactivity
QVQLVESGGGLVQAGGSLRLSCAASGITSPSYAMGWYRQAPGKERELVAAISKNGVRTYYADSVKGRFTISRDNAKNTVYLQMNSLKPEDTAVYYCAARYNPLYATLYRRMDYWGQGTQVTVSS | high polyreactivity
QVQLVESGGGLVQAGGSLRLSCAASGITTTVYAMGWYRQAPGKERELVAGISWSTSSTYYADSVKGRFTISRDNAKNTVYLQMNSLKPEDNAVYYCAVYTITGRVLRQGPLYRHYYWGQGTQVTVSS | high polyreactivity
QVQLVESGGGLVQAGGSLRLSCAASGITYTDYDLGCYRQAPGKERELVAAISNGGGSTYYADSVKGRFTISRDNAKNTVYLQMNSLKPEDTGVYYWAAERVPSWWVEWGVAQWDDYWGQGTQVTVSS | low polyreactivity
QVQLVESGGGLVQAGGSLRLSCAASGITYYRYTMGWYRQAPGKDRELVASINWSGTRTYYADSVKGRFTISRDNAKNTVYLLMNSLKPEDTAVYYCAAKGAQGTSRRWFDYWGQGTQVTVSS | high polyreactivity
QVQLVESGGGLVQAGGSLRLSCAASGIYSYVMGWYRQAPGKERELVAAISGTGGRTYYADSVKGRFTISRDNAKNTVYLQMNSLKPEDTAVYYCAARGIYQPKTFDYWGQGTQVTVSS | high polyreactivity
QVQLVESGGGLVQAGGSLRLSCAASGKIFFRYTLGWYRQAPGKERELVAAISASGGSTYYADSVKGRFTISRDNAKNTVYLQMNSLKPEDTSVYYCAARILHYTSEYYYWGQGTQVTVSS | low polyreactivity
QVQLVESGGGLVQAGGSLRLSCAASGKIFYEYTMGWYRQAPGKERELVAAISWSGVSTYYADSVKGRFTISRDNAKNTVYLQMNSLKPEDTAVYYCAADRGNDYWGQGTQVTVSS | low polyreactivity
QVQLVESGGGLVQAGGSLRLSCAASGKTFPANAMGWYRPAPGKERELVADISVSDGSTYYADSVKGRFTISRDNAKNTVYLQMNSLKPQDTAVYYCNARKRPNFYVKSFTQIGGRFDYWGQGTQVTVSS | low polyreactivity
QVQLVESGGGLVQAGGSLRLSCAASGLDYYAMGWYRQAPGKERELVAAIDWSGVSTYYADSVKGRFTISRDNAKNSVYLQMNSLKPEDTAVYYCAALYDGWPRVSYGLGEYGYWGQGTQVTVSS | low polyreactivity
